This passage reports OD450 reading results from US20230116587A1.

The assay deals with RBD of the recombinantly expressed S protein (novel coronavirus SARS-CoV-2) (UniProt P0DTC2). The experiment in a line: ELISA, RBD coated at 0.01 µg/ml, antibody 0.1 µg/ml, HRP anti-human IgG Fc. Background: ELISA stands for enzyme-linked immunosorbent assay.

As for irrelevant control antibody, the OD450 reading came to 0.006 OD450.
